Laboratory results published in US20110118172A1 (Takeda / Millennium, published 2011).
Non-standard residues stand in square brackets, D forms with d. No end group written: not given here. *: point of attachment. benzylureido = benzylcarbamoyl on the N-terminal amino group, O=C(NCc1ccccc1)*; amidino = amidino group on the N-terminal amino group, N=C(N)*; Pro(trans-4-F) = O=C(O)[C@@H]1C[C@@H](F)CN1; Arg(Me) = CNC(=N)NCCC[C@H](N)C(=O)O; Dap(CONH2) = NC(=O)NC[C@H](N)C(=O)O; Hyp = O=C(O)[C@@H]1C[C@@H](O)CN1; Cha = N[C@@H](CC1CCCCC1)C(=O)O; dCha = N[C@H](CC1CCCCC1)C(=O)O; Decanoyl = CCCCCCCCCC(=O)*; Carbamoyl = NC(=O)*; azaGly = NNC(=O)O; Ms = CS(=O)(=O)*

B1: Compound No. 966: des(1)-Benzylureido-[D-Tyr2,Hyp3,Thr5,AzaGly7,Arg(Me)9,Trp10]MS10 (peptide)
peptide: benzylureido-[dY][Hyp]NTF[azaGly]L[Arg(Me)]W-NH2
SMILES: CNC(=N)NCCC[C@H](NC(=O)[C@H](CC(C)C)NC(=O)NNC(=O)[C@H](Cc1ccccc1)NC(=O)[C@@H](NC(=O)[C@H](CC(N)=O)NC(=O)[C@@H]1C[C@@H](O)CN1C(=O)[C@@H](Cc1ccc(O)cc1)NC(=O)NCc1ccccc1)[C@@H](C)O)C(=O)N[C@@H](Cc1c[nH]c2ccccc12)C(N)=O
B2: Compound No. 963: des(1)-Ms-[D-Tyr2,Hyp3,Thr5,AzaGly7,Arg(Me)9,Trp10]MS10 (peptide)
peptide: Ms-[dY][Hyp]NTF[azaGly]L[Arg(Me)]W-NH2
SMILES: CNC(=N)NCCC[C@H](NC(=O)[C@H](CC(C)C)NC(=O)NNC(=O)[C@H](Cc1ccccc1)NC(=O)[C@@H](NC(=O)[C@H](CC(N)=O)NC(=O)[C@@H]1C[C@@H](O)CN1C(=O)[C@@H](Cc1ccc(O)cc1)NS(C)(=O)=O)[C@@H](C)O)C(=O)N[C@@H](Cc1c[nH]c2ccccc12)C(N)=O
B3: Compound No. 965: des(1)-decanoyl[D-Tyr2,Hyp3,Thr5,AzaGly7,Arg(Me)9,Trp10]MS10 (peptide)
peptide: Decanoyl-[dY][Hyp]NTF[azaGly]L[Arg(Me)]W-NH2
SMILES: CCCCCCCCCC(=O)N[C@H](Cc1ccc(O)cc1)C(=O)N1C[C@H](O)C[C@H]1C(=O)N[C@@H](CC(N)=O)C(=O)N[C@H](C(=O)N[C@@H](Cc1ccccc1)C(=O)NNC(=O)N[C@@H](CC(C)C)C(=O)N[C@@H](CCCNC(=N)NC)C(=O)N[C@@H](Cc1c[nH]c2ccccc12)C(N)=O)[C@@H](C)O
B4: Compound No. 977: des(1-2)-[Hyp3,Thr5,AzaGly7,Arg(Me)9,Trp10]MS10 (peptide)
peptide: [Hyp]NTF[azaGly]L[Arg(Me)]W-NH2
modifications: N-terminus assumed
SMILES: CNC(=N)NCCC[C@H](NC(=O)[C@H](CC(C)C)NC(=O)NNC(=O)[C@H](Cc1ccccc1)NC(=O)[C@@H](NC(=O)[C@H](CC(N)=O)NC(=O)[C@@H]1C[C@@H](O)CN1)[C@@H](C)O)C(=O)N[C@@H](Cc1c[nH]c2ccccc12)C(N)=O
B5: Compound No. 967: des(1)-Ureido-[D-Tyr2,Hyp3,Thr5,AzaGly7,Arg(Me)9,Trp10]MS10 (peptide)
peptide: Carbamoyl-[dY][Hyp]NTF[azaGly]L[Arg(Me)]W-NH2
SMILES: CNC(=N)NCCC[C@H](NC(=O)[C@H](CC(C)C)NC(=O)NNC(=O)[C@H](Cc1ccccc1)NC(=O)[C@@H](NC(=O)[C@H](CC(N)=O)NC(=O)[C@@H]1C[C@@H](O)CN1C(=O)[C@@H](Cc1ccc(O)cc1)NC(N)=O)[C@@H](C)O)C(=O)N[C@@H](Cc1c[nH]c2ccccc12)C(N)=O
B6: Compound No. 971: des(1)-Amidino-[D-Tyr2,Hyp3,Thr5,AzaGly7,Arg(Me)9,Trp10]MS10 (peptide)
peptide: amidino-[dY][Hyp]NTF[azaGly]L[Arg(Me)]W-NH2
SMILES: CNC(=N)NCCC[C@H](NC(=O)[C@H](CC(C)C)NC(=O)NNC(=O)[C@H](Cc1ccccc1)NC(=O)[C@@H](NC(=O)[C@H](CC(N)=O)NC(=O)[C@@H]1C[C@@H](O)CN1C(=O)[C@@H](Cc1ccc(O)cc1)NC(=N)N)[C@@H](C)O)C(=O)N[C@@H](Cc1c[nH]c2ccccc12)C(N)=O

Target: metastin receptor (OT7T175) stably expressed on CHO cells
Test: cell-based or functional assay

Row | Specific Activity: EC50 of the test compound based on EC50 of Metastin (45-54); agonist activity by change in intracellular calcium ion level (Fluo-4 NW, FLIPR) in receptor-expressing CHO cells [ratio] | Binder
1 | 0.3 | Ac-[dY][Hyp][Dap(CONH2)]T[Cha]GL[Arg(Me)]W-NH2 (also: Gly7-Leu8 -CONH- replaced by (E)-CMe=CH-) [Compound No. 986: des(1)-Ac-[D-Tyr2,Hyp3,Alb4,Thr5,Cha6,Gly7ψ((E)CMe=CH)Leu8,Arg(Me)9,Trp10]MS10]
2 | 1.9 | B1
3 | 1 | Ac-[dY][Hyp][Dap(CONH2)]T[Cha]G[dL][Arg(Me)]W-NH2 (also: Gly7-D-Leu8 -CONH- replaced by (E)-CH=CH-) [Compound No. 976: des(1)-Ac-[D-Tyr2,Hyp3,Alb4,Thr5,Cha6,Gly7ψ((E)CH=CH)D-Leu8,Arg(Me)9,Trp10]MS10]
4 | 0.9 | B2
5 | 4.1 | B3
6 | 1.7 | B4
7 | 0.6 | Ac-[dY][Pro(trans-4-F)]NT[Cha][azaGly]L[Arg(Me)]W-NH2 [Compound No. 970: des(1)-Ac-[D-Tyr2,Pro(4F)3,Thr5,Cha6,AzaGly7,Arg(Me)9,Trp10]MS10]
8 | 0.6 | B5
9 | 0.3 | Ac-[dY][Hyp]NT[Cha][azaGly]L[Arg(Me)]W-NH2 [Compound No. 969: des(1)-Ac-[D-Tyr2,Hyp3,Thr5,Cha6,AzaGly7,Arg(Me)9,Trp10]MS10]
10 | 0.4 | B6
11 | 2.3 | Ac-[dY][Hyp][Dap(CONH2)]T[dCha]GL[Arg(Me)]W-NH2 (also: Gly7-Leu8 -CONH- replaced by (E)-CH=CH-) [Compound No. 975: des(1)-Ac-[D-Tyr2,Hyp3,Alb4,Thr5,D-Cha6,Gly7ψ((E)CH=CH)Leu8,Arg(Me)9,Trp10]MS10]
